The assay addresses T1, LSD1 1-174 (N-terminus of LSD1), labelled (UniProt O60341 1-174).
T1 construct: Labelled LSD1 deletion mutant used in the GST pull-down; not shown: Flag tag of the CMX-Flag vector
Briefly: GST pull-down, labelled LSD1 mutant. The method, then: GST, GST-Nix1, GST-ROR[…], and GST ERβ-NTD proteins were used as control. (NTD; N-terminal domain, DBD; DNA-binding domain, LBD; ligand-binding domain).
GST pull-down assays were performed with equal amounts of GST or GST fusion proteins as described¹⁷ using buffer containing either 150 mM KCl, 0.15% NP40 (FIG. 1b) or 600 mM KCl, 0.3% NP40 (FIG. 7a). Pull-downs with sepharose coupled histone H3 tail were performed as described²⁷ in 20 mM Tris pH 8.5, 150 mM NaCl, 0.5% NP40.10% of the in vitro translated proteins were loaded as input.

B1: GST-AR-DBD (GST fused to the DNA-binding domain of the androgen receptor), bacterially expressed (other, UniProt P10275 560-632, looked up)
chain: CLICGDEASGCHYGALTCGSCKVFFKRAAEGKQKYLCASRNDCTIDKFRRKNCPSCRLRKCYEAGMTLGARKL
notes: also called GST-AR fusion protein; not shown: glutathione S-transferase (GST) fusion partner
Turning to B1, the binding result is recorded as “no binding”.

These data come from patent US20090104196A1 (UNIVERSITAETSKLINIKUM FREIBURG, published 2009).
